In patent publication US20230235013A1 (MABSOLVE, published 2023):
Positions count from the first letter of the chain named. Numbers in names are those of the source.

B1: anti-CD20 human IgG1 L234D/L235Q/G236R (antibody)
heavy: QVQLQQPGAELVKPGASVKMSCKASGYTFTSYNMHWVKQTPGRGLEWIGAIYPGNGDTSYNQKFKGKATLTADKSSSTAYMQLSSLTSEDSAVYYCARSTYYGGDWYFNVWGAGTTVTVSSASTKGPSVFPLAPSSKSTSGGTAALGCLVKDYFPEPVTVSWNSGALTSGVHTFPAVLQSSGLYSLSSVVTVPSSSLGTQTYICNVNHKPSNTKVDKKVEPKSCDKTHTCPPCPAPEDQRGPSVFLFPPKPKDTLMISRTPEVTCVVVDVSHEDPEVKFNWYVDGVEVHNAKTKPREEQYNSTYRVVSVLTVLHQDWLNGKEYKCKVSNKALPAPIEKTISKAKGQPREPQVYTLPPSRDELTKNQVSLTCLVKGFYPSDIAVEWESNGQPENNYKTTPPVLDSDGSFFLYSKLTVDKSRWQQGNVFSCSVMHEALHNHYTQKSLSLSPGK
light: QIVLSQSPAILSASPGEKVTMTCRASSSVSYIHWFQQKPGSSPKPWIYATSNLASGVPVRFSGSGSGTSYSLTISRVEAEDAATYYCQQWTSNPPTFGGGTKLEIKRTVAAPSVFIFPPSDEQLKSGTASVVCLLNNFYPREAKVQWKVDNALQSGNSQESVTEQDSKDSTYSLSSTLTLSKADYEKHKVYACEVTHQGLSSPVTKSFNRGEC
notes: also called 2-9; 1-27
B2: anti-CD20 human IgG1 L234D/L235T/G236R (antibody)
heavy: B1 heavy with Q239T
light: B1 light
notes: also called 2-11; 1-30
B3: anti-CD20 human IgG1 L234G/L235H/G236R (antibody)
heavy: B1 heavy with D238G, Q239H
light: B1 light
notes: also called 2-17; 1-51
B4: anti-CD20 human IgG1 L234Q/L235H/G236R (antibody)
heavy: B1 heavy with D238Q, Q239H
light: B1 light
notes: also called 2-29
B5: anti-CD20 human IgG1 L234G/L235Q/G236R (antibody)
heavy: B1 heavy with D238G
light: B1 light
notes: also called 2-18; 1-57
B6: anti-CD20 human IgG1 L234H/L235I/G236R (antibody)
heavy: B1 heavy with D238H, Q239I
light: B1 light
notes: also called 2-20; 1-67
B7: anti-CD20 human IgG1 L234E/L235H/G236R (antibody)
heavy: B1 heavy with D238E, Q239H
light: B1 light
notes: also called 2-13; 1-36
B8: anti-CD20 human IgG1 L234S/L235E/G236R (antibody)
heavy: B1 heavy with D238S, Q239E
light: B1 light
notes: also called 2-46
B9: anti-CD20 human IgG1 L234E/L235I/G236R (antibody)
heavy: B1 heavy with D238E, Q239I
light: B1 light
notes: also called 2-14; 1-37
B10: anti-CD20 human IgG1 L234E/L235D/G236R (antibody)
heavy: B1 heavy with D238E, Q239D
light: B1 light
notes: also called 2-12; 1-33
B11: anti-CD20 human IgG1 L234Q/L235R/G236R (antibody)
heavy: B1 heavy with D238Q, Q239R
light: B1 light
notes: also called 2-32
B12: anti-CD20 human IgG1 L234Q/G236R (antibody)
heavy: not shown
light: B1 light
notes: also called 2-30
B13: anti-CD20 human IgG1 L234E/L235V/G236R (antibody)
heavy: B1 heavy with D238E, Q239V
light: B1 light
notes: also called 2-16; 1-46
B14: anti-CD20 human IgG1 L234S/G236R (antibody)
heavy: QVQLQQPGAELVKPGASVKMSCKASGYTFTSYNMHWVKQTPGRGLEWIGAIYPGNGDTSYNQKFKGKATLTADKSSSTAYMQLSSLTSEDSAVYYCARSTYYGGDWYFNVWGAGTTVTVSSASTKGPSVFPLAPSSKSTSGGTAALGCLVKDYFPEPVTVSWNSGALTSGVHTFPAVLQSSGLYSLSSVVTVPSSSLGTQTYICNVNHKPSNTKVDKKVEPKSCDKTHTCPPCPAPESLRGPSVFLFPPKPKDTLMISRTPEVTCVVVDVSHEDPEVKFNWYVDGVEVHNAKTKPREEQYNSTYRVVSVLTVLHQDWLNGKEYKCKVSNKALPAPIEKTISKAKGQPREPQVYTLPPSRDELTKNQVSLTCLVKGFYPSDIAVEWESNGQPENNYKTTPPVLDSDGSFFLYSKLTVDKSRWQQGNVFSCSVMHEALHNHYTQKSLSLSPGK
light: B1 light
notes: also called 2-50
B15: anti-CD20 human IgG1 L234Q/L235D/G236R (antibody)
heavy: B1 heavy with D238Q, Q239D
light: B1 light
notes: also called 2-28
B16: anti-CD20 human IgG1 L234R/L235D/G236R (antibody)
heavy: B1 heavy with D238R, Q239D
light: B1 light
B17: anti-CD20 human IgG1 L234K/L235T/G236R (antibody)
heavy: B1 heavy with D238K, Q239T
light: B1 light
notes: also called 2-25; 1-90

target: T1, Histidine-tagged recombinant human FcγRI (CD64) (human, UniProt P12314 16-288, limits assumed); assay: SPR, His-FcγRI captured; Expt 3;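 further: biacore T200 SPR at 25 °C, Fc-variant antibodies at 100 µg/mL flowed 1 min over anti-His-captured FcγRI, signal taken just before injection end minus a buffer blank cycle; antibody analyte injected at 100 µg/mL for 1 min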
T1 construct: bought
Procedure: Binding analysis was carried out by surface plasmon resonance at 25° C. using a Biacore® T200 instrument with Biacore® T200 control software. The sample compartment was held at 5° C. The running buffer (HBS-EP+) consisted of 0.01 M HEPES pH 7.4, containing 0.15 M NaCl, 3 mM EDTA, and 0.05% v/v Surfactant P20. Methods were run using the manufacturer's standard method wizards as described in the Biacore® T200 Instrument Handbook.
The cell was activated by treatment with EDC/NHS for 7 min. The antibody was diluted to 10 μg/mL in 10 mM sodium acetate pH 5.0 and injected for 7 min at 5 μL/min. The flow cell was deactivated by injection of 1M ethanolamine for 7 min. This process was repeated in the absence of anti-his antibody on a separate flow cell to generate a reference surface. […] Samples of purified antibodies comprising variant Fc regions (1 mg/mL in PBS) were diluted with running buffer to 100 μg/mL and were injected for 1 min at 30 μL/min and allowed to disassociate for 2 min. Between each cycle, the chip was regenerated by injection of 10 mM glycine pH 3.0 for 0.5 min at a flow rate of 30 μL/min and recharged with a fresh injection of FcγRI. At the beginning of each experiment, three blank cycles were run, with buffer alone being injected instead of test sample. The average SPR signal (relative to the reference cell) was measured in a window approximately 8 to 13 seconds before the injection of test sample (baseline) and approximately 3 to 8 seconds before the end of injection (response). The response of the third of the blank (buffer) samples was subtracted from the response of each test sample in order to allow for any dissociation of the bound FcγRI giving a corrected response for each test sample. The whole experiment was repeated three times with the test samples being analysed in different orders each time.

Corrected response (RU)	Binder
7.1 RU	B1
5.5 RU	B2
24.4 RU	B3
8.1 RU	B4
6.1 RU	B5
22.8 RU	B6
6.2 RU	B7
6.9 RU	B8
11.7 RU	B9
12.3 RU	B10
9.4 RU	B11
49 RU	B12
7.4 RU	B13
30.9 RU	B14
4.4 RU	B15
4.2 RU	B16
1.1 RU	B17

target: T1, Histidine-tagged recombinant human …; assay: SPR, His-FcγRI captured; Expt 2;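 further: biacore T200 SPR at 25 °C, Fc-variant antibodies at 100 µg/mL flowed 1 min over anti-His-captured receptor, signal read near injection end minus third buffer blank; antibody analyte injected at 100 µg/mL for 1 min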

Corrected response (RU)	Binder
5.9 RU	B1
4.3 RU	B2
4.2 RU	B3
6.7 RU	B4
5.2 RU	B5
10.9 RU	B6
4.5 RU	B7
5.3 RU	B8
8.1 RU	B9
9.4 RU	B10
2.6 RU	B11
27 RU	B12
5.5 RU	B13
21.6 RU	B14
2.7 RU	B15
0.9 RU	B16
-1 RU	B17

target: T1, Histidine-tagged recombinant human …; assay: SPR, His-FcγRI captured; Expt 1;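 further: SPR at 25 °C on anti-His antibody chip capturing FcγRI, Fc-variant antibodies injected at 100 µg/mL for 1 min, signal near end of injection minus buffer blank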

Corrected response (RU)	Binder
5.7 RU	B1
3 RU	B2
1.8 RU	B3
2.2 RU	B4
4.4 RU	B5
13.1 RU	B6
4.6 RU	B7
3.7 RU	B8
11.6 RU	B9
15.1 RU	B10
-0.2 RU	B11
41.9 RU	B12
4.8 RU	B13
33.7 RU	B14
4.3 RU	B15
0.4 RU	B16
-1.8 RU	B17

target: T1, Histidine-tagged recombinant human …; assay: SPR, His-FcγRI captured; mean;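 further: biacore T200 SPR at 25 °C, anti-His surface capturing FcγRI, Fc-variant antibodies injected at 100 µg/mL for 1 min, signal near injection end minus third buffer blank, three repeats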

Corrected response (RU), Mean	Binder
6.2 RU	B1
4.3 RU	B2
10.1 RU	B3
5.7 RU	B4
5.3 RU	B5
15.6 RU	B6
5.1 RU	B7
5.3 RU	B8
10.4 RU	B9
12.3 RU	B10
3.9 RU	B11
39.3 RU	B12
5.9 RU	B13
28.7 RU	B14
3.8 RU	B15
1.8 RU	B16
-0.6 RU	B17
